Assay [1] relates to UACC-257X2.2 melanoma xenograft. The assay is described as follows: In vivo efficacy, subcutaneous melanoma xenograft, tumor volume / % TGI. The following applies: for % TGI Single Agent BRAFi vs. control / % TGI Single Agent Anti-ETBR ADC vs. control: UACC257-X2.2. The arrangement: species or system mice. As to the method: (§1) Next, efficacy studies were performed using the melanoma cells lines in the xenografts mouse models described above. All studies were conducted in accordance with the Guide for the Care and Use of Laboratory Animals (Ref: Institute of Laboratory Animal Resources (NIH publication no. 85-23), Washington, D.C.: National Academies Press; 1996). 10- to 14-week-old female CRL Nu/Nu or NCr nude mice from Charles River Laboratories were inoculated subcutaneously in the dorsal right flank with either 5×10^6 UACC-257X2.2 cells in HBSS with Matrigel or 5×10^6 A2058 cells in HBSS with Matrigel. When tumor volumes reached approximately 200 mm^3 (day 0), animals were randomized into groups of 10 each.
(§2) For single agent efficacy studies, the anti-ETBR ADC candidate Hu5E9v1-ADC was administered as a single intravenous (IV) injection on day 0 at 1 mpk, 3 mpk, or 6 mpk (mg/kg). A control ADC antibody and vehicle control were also administered. Average tumor volumes with standard deviations were determined from 10 animals per group. Tumor volumes were measured twice per week until study end.
To do this, the in vivo efficacy for various combinations of Hu5E9v1-ADC and BRAFi-945 were evaluated against the UACC-257X2.2 melanoma model described above. Tumors were grown to an average size of approximately 200 mm^3, whereupon animals were randomized into groups of 10 each. An appropriate vehicle control (Klucel LF) or BRAFi-945 at doses of 1 mpk, 6 mpk or 20 mpk were administered orally once a day×21 days beginning on study Day 0. A single 1 mpk or 3 mpk dose of Hu5E9v1-ADC or control, a histidine buffer #8, was administered intraveneously (after two doses of 945) via tail vein at study Day 1.
(§3) The average tumor volumes were determined from 10 animals per group. Tumor volumes were measured twice per week until study end. Tumor volumes were measured in two dimensions (length and width) using UltraCal IV calipers (Model 54 10 111, Fred V. Fowler Company; Newton, Mass.). The following formula was used with Excel, version 12.2.8 (Microsoft; Redmond, Wash.) to calculate tumor volume: Tumor Volume (mm3)=[…]
(§4) To analyze the repeated measurement of tumor volumes from the same animals over time, a mixed-modeling Linear Mixed Effects (LME) approach was used (Pinheiro et al. 2009). This approach can address both repeated measurements and a modest drop-out rate due to non-treatment-related termination of animals prior to study end. Cubic regression splines were used to fit a non-linear profile to the time courses of log 2 tumor volume at each dose level. These non-linear profiles were then related to dose within the mixed model. Tumor growth inhibition (TGI) as a percentage of vehicle was calculated as percent area under the fitted curve (AUC) per day in relation to the vehicle, using the following formula:
(§5) Using this formula, a TGI value of 100% indicates tumor stasis, of >1% but <100% indicates tumor growth delay, and of >100% indicates tumor regression. To get uncertainty intervals (UIs) for % TGI, the fitted curve and the fitted covariance matrix were used to generate a random sample as an approximation to the distribution of % TGI. The random sample is composed of 1000 simulated realizations of the fitted-mixed model, where the % TGI has been recalculated for each realization. Here, in the reported UI is the value for which 95% of the time, the recalculated values of % TGI will fall in this region given the fitted model. The 2.5 and 97.5 percentiles of the simulated distribution were used as the […] UIs.

Assay [2] relates to COLO 829 melanoma xenograft. Described as above. Set-up: species or system mice.
The next assay concerns A2058 melanoma cell line. Kind of assay: In vitro cell killing, CellTiter-Glo cell viability. In kind it is cell-based, human. The conditions noted are these: A2058 (low ETBR copy number), 5 days. As to the method:
(§6) The melanoma cell lines A2058 and UACC-257X2.2 were grown in appropriate media at 37° C. and 5% CO2. To assess the effects of Hu5E9v1-ADC on cell viability, cells were plated at 1,500 per well in 50 μL, of normal growth medium in 96-well clear-bottom black plates. Twenty-four hours later, an additional 50 μL, of culture medium with serial dilutions of Hu5E9v1-ADC concentrations was added to triplicate wells. Five days later, cell survival was determined using CellTiter-Glo Luminescent Cell Viability Reagent (G7572; Promega Corporation) and with an EnVision 2101 Mutilabel Reader (Perkin-Elmer).

For assay [3], the system named is UACC-257X2.2 melanoma cell line. Described as above. The class given is cell-based, human. The following applies: UACC-257X2.2 (high ETBR copy number), 5 days. How it is done:
as §6

A further assay addresses T1, ETBR (Homo sapiens, UniProt P24530).
T1 sequence (P24530 27-442): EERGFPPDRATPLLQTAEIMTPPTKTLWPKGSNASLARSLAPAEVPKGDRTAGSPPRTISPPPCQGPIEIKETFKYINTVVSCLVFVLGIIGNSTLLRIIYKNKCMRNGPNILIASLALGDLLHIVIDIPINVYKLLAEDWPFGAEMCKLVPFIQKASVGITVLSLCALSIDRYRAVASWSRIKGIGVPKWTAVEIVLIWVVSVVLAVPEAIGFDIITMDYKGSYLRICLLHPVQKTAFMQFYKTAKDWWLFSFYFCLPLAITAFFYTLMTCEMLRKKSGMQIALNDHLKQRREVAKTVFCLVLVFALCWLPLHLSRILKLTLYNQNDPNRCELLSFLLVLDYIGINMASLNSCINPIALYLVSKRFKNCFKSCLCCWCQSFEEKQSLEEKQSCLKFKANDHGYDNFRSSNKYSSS
The assay is described as follows: Scatchard analysis of antibody binding sites per cell with 125I-labeled Hu5E9v1-ADC. The following applies: 4 h on ice, estimated. How it is done:
A determination of antibody binding sites per cell was performed (Scatchard analysis): The affinity constant and the number of cell surface binding sites for each antibody were estimated by incubating the melanoma cells for 4 h on ice with a fixed concentration of ^125I-labeled Hu5E9v1-ADC combined with increasing concentrations of unlabeled Hu5E9v1-ADC. The data were analyzed by nonlinear curve fitting using an analysis program method.

The subject of another assay is A2058 melanoma xenograft. The assay is described as follows: In vivo efficacy, subcutaneous melanoma xenograft, tumor volume / % TGI. Set-up: species or system mice. The following applies: for % TGI Single Agent Anti-ETBR ADC vs. control: A2058. As to the method:
as §1, §2, §3, §4, §5
Tumors were grown to an average size of approximately 200 mm^3, whereupon animals were randomized into groups of 10 each. […] A single dose of Hu5E9v1-ADC at either 3 mpk or 6 mpk or control, a histidine buffer #8, was administered intraveneously into the tail vein on day 1 (after three doses of RG7204).
To do this, the in vivo efficacy for various combinations of Hu5E9v1-ADC and MEKi-623 and/or MEKi-973 were evaluated against A2058 and SK-MEL-23 and IPC-298 melanoma in vivo models, performed as described above in Example 4. An appropriate methylcellulose tween vehicle control (0.5% methylcellulose, 0.2% Tween-80 (MCT) or MEK inhibitor at doses of 1 mpk, 3 mpk or 7.5 mpk were administered orally once a day×21 days beginning on study Day 0. A single 3 mpk or 6 mpk dose of Hu5E9v1-ADC or control, a histidine buffer #8, was administered intraveneously (after two doses of a MEK inhibitor) via tail vein at study Day 1.

[4] abbreviates: Anti-ETBR ADC single dose 1 mg/kg.
The mark [5] stands for this setting: Anti-ETBR ADC single dose 3 mg/kg.

For the molecule `Nc1ncnc2c(C(=O)Nc3c(Cl)ccc(NS(=O)(=O)CCCF)c3F)csc12` [BRAFi-945, 4-amino-N-(6-chloro-2-fluoro-3-(3-fluoropropylsulfonamido)phenyl)thieno[3,2-d]pyrimidine-7-carboxamide], the results for the “% TGI Single Agent BRAFi vs. control” value in assay [1] (BRAFi Qdx21 1 mg/kg), in assay [1] (BRAFi Qdx21 6 mg/kg) and in assay [1] (BRAFi Qdx21 20 mg/kg) were 66%, 109% and 136%, respectively.

B1: Hu5E9v1-ADC: anti-ETBR antibody Hu5E9v1 conjugated to MMAE through a vc linker (antibody drug conjugate) (conjugate)
VH: EVQLVESGGGLVQPGGSLRLSCAASGYTFTSYWMQWVRQAPGKGLEWIGTIYPGDGDTSYAQKFKGRATLSTDKSKNTAYLQMNSLRAEDTAVYYCARWGYAYDIDNWG
VL: DIQMTQSPSSLSASVGDRVTITCKSSQSLLDSDGKTYLNWLQQKPGKAPKRLIYLVSKLDSGVPSRFSGSGSGTDFTLTISSLQPEDFATYYCWQGTHFPYTFGQGTKVEIK
As to B1, the “% TGI Single Agent Anti-ETBR ADC vs. control” value in assay [1] (setting [4]) was found to be 69%; in assay [1] (setting [5]) it was 112%; in assay [2] (setting [4]), 31%; in assay [2] (setting [5]), 33%; in the assay with A2058 melanoma xenograft (setting [5]), 39%; with A2058 melanoma xenograft (Anti-ETBR ADC single dose 6 mg/kg) it was 85%. Moreover, the “single agent efficacy, tumor volume” value is recorded as “efficacy was not apparent” in assay [1] (single IV dose 1 mg/kg on day 0); “sustained tumor regression” in assay [1] (single IV dose of 3 and 6 mg/kg on day 0). Further, the “cell killing by ADC titration relative to control ADC” value (in the assay with A2058 melanoma cell line; in assay [3]) was “specific cell killing relative to control ADC” throughout. Further, the results for the “number of Hu5E9v1-ADC binding sites” value with ETBR (A2058 cells) and with ETBR (UACC-257X2.2 cells) were 1,582 sites per cell and 33,939 sites per cell, respectively. In addition, the “single agent efficacy, tumor burden” value in the assay on A2058 melanoma xenograft (single IV dose 3 mg/kg) was “Efficacy was not apparent”; with A2058 melanoma xenograft (single IV dose 6 mpk, relative to matching dose of control ADC or vehicle), “partial reduction in tumor burden”.

Source of the values: patent US20140341916A1, “THERAPEUTIC COMBINATIONS AND METHODS OF TREATING MELANOMA” (Genentech, Inc., priority 2011, published 2014).
